Patent US20250115669A1, “FGFR1/KLB Targeting Agonistic Antigen-Binding Proteins and Conjugates Thereof with GLP-1R Agonistic Peptides” (SANOFI, priority 2020, published 2025)
Residue numbers refer to the chain shown, from its start. In names and notes the source's numbering stands.

B1: Ab0328: IgG4 PE; 16H7 VL (N25S, D49Y, D50A, D91A, N93S); 16H7 VH (M34V, I83T, D109E) (antibody)
VH: QVTLKESGPVLVKPTETLTLTCTVSGFSLNNARVGVSWIRQPPGKALEWLAHIFSNDEKSYSTSLKSRLTISKDTSKSQVVLTMTNMDPVDTATYYCARSVVTGGYYYEGMDVWGQGTTVTVSS
light: SYVLTQPPSVSVAPGQTARITCGGSNIGSESVHWYQQKPGQAPVLVVYYASDRPSGIPERFSGSNSGNTATLTISRVEAGDEADYYCQVWAGSSDHVVFGGGTKLTVLGQPKANPTVTLFPPSSEELQANKATLVCLISDFYPGAVTVAWKADGSPVKAGVETTKPSKQSNNKYAASSYLSLTPEQWKSHRSYSCQVTHEGSTVEKTVAPTECS
B2: Ab0349: IgG4 PE; 16H7 VL (N25S, D49E, D50E, D91T, N93S); 16H7 VH (M34V, I83T, D109E) (antibody)
VH: B1 VH
light: B1 light with Y49E, A50E, A91T
B3: Ab0339: IgG4 PE; 16H7 VL (N25S, D49A, D50E, D91A, N93S); 16H7 VH (M34V, I83T, D109E) (antibody)
VH: B1 VH
light: B1 light with Y49A, A50E
B4: Ab0347: IgG4 PE; 16H7 VL (N25S, D49A, D50S, D91A, N93S); 16H7 VH (M34V, I83T, D109E) (antibody)
VH: B1 VH
light: B1 light with Y49A, A50S
B5: Ab0352: IgG4 PE; 16H7 VL (N25S, D49E, D50E, D91E, N93S); 16H7 VH (M34V, I83T, D109E) (antibody)
VH: B1 VH
light: B1 light with Y49E, A50E, A91E
B6: Ab0341: IgG4 PE; 16H7 VL (N25S, D49A, D50Y, D91A, N93S); 16H7 VH (M34V, I83T, D109E) (antibody)
VH: B1 VH
light: B1 light with Y49A, A50Y
B7: Ab0343: IgG4 PE; 16H7 VL (N25S, D49A, D50A, D91A, N93S); 16H7 VH (M34V, I83T, D109E) (antibody)
VH: B1 VH
light: B1 light with Y49A
B8: Ab0329: IgG4 PE; 16H7 VL (N25S, D49Y, D50S, D91A, N93S); 16H7 VH (M34V, I83T, D109E) (antibody)
VH: B1 VH
light: B1 light with A50S
B9: Ab0340: IgG4 PE; 16H7 VL (N25S, D49A, D50E, D91E, N93S); 16H7 VH (M34V, I83T, D109E) (antibody)
VH: B1 VH
light: B1 light with Y49A, A50E, A91E
B10: Ab0345: IgG4 PE; 16H7 VL (N25S, D49A, D50A, D91E, N93A); 16H7 VH (M34V, I83T, D109E) (antibody)
VH: B1 VH
light: B1 light with Y49A, A91E, S93A
B11: Ab0344: IgG4 PE; 16H7 VL (N25S, D49A, D50A, D91E, N93S); 16H7 VH (M34V, I83T, D109E) (antibody)
VH: B1 VH
light: B1 light with Y49A, A91E
B12: Ab0336: IgG4 PE; 16H7 VL (N25S, D49S, D50H, D91A, N93S); 16H7 VH (M34V, I83T, D109E) (antibody)
VH: B1 VH
light: B1 light with Y49S, A50H
B13: Ab0342: IgG4 PE; 16H7 VL (N25S, D49A, D50A, D91A, N93E); 16H7 VH (M34V, I83T, D109E) (antibody)
VH: B1 VH
light: B1 light with Y49A, S93E
B14: Ab0348: IgG4 PE; 16H7 VL (N25S, D49E, D50E, D91T, N93E); 16H7 VH (M34V, I83T, D109E) (antibody)
VH: B1 VH
light: B1 light with Y49E, A50E, A91T, S93E
B15: Ab0332: IgG4 PE; 16H7 VL (N25S, D49S, D50E, D91E, N93A); 16H7 VH (M34V, I83T, D109E) (antibody)
VH: B1 VH
light: B1 light with Y49S, A50E, A91E, S93A
B16: Ab0333: IgG4 PE; 16H7 VL (N25S, D49S, D50Y, D91A, N93S); 16H7 VH (M34V, I83T, D109E) (antibody)
VH: B1 VH
light: B1 light with Y49S, A50Y
B17: Ab0338: IgG4 PE; 16H7 VL (N25S, D49S, D50S, D91A, N93S); 16H7 VH (M34V, I83T, D109E) (antibody)
VH: B1 VH
light: B1 light with Y49S, A50S
B18: Ab0334: IgG4 PE; 16H7 VL (N25S, D49S, D50A, D91A, N93S); 16H7 VH (M34V, I83T, D109E) (antibody)
VH: B1 VH
light: B1 light with Y49S
B19: Ab0346: IgG4 PE; 16H7 VL (N25S, D49A, D50H, D91A, N93S); 16H7 VH (M34V, I83T, D109E) (antibody)
VH: B1 VH
light: B1 light with Y49A, A50H
B20: Ab0350: IgG4 PE; 16H7 VL (N25S, D49E, D50E, D91A, N93S); 16H7 VH (M34V, I83T, D109E) (antibody)
VH: B1 VH
light: B1 light with Y49E, A50E
B21: Ab0337: IgG4 PE; 16H7 VL (N25S, D49S, D50H, D91E, N93E); 16H7 VH (M34V, I83T, D109E) (antibody)
VH: B1 VH
light: B1 light with Y49S, A50H, A91E, S93E
B22: Ab0330: IgG4 PE; 16H7 VL (N25S, D49S, D50E, D91A, N93E); 16H7 VH (M34V, I83T, D109E) (antibody)
VH: B1 VH
light: B1 light with Y49S, A50E, S93E

target: T1, human beta-Klotho (Homo sapiens, UniProt Q86Z14); assay: SPR off-rate screening of antibody mutants (human beta-Klotho captured by anti-His antibody); type: binding; details: mean, n=3
T1 sequence (Q86Z14 1-1044): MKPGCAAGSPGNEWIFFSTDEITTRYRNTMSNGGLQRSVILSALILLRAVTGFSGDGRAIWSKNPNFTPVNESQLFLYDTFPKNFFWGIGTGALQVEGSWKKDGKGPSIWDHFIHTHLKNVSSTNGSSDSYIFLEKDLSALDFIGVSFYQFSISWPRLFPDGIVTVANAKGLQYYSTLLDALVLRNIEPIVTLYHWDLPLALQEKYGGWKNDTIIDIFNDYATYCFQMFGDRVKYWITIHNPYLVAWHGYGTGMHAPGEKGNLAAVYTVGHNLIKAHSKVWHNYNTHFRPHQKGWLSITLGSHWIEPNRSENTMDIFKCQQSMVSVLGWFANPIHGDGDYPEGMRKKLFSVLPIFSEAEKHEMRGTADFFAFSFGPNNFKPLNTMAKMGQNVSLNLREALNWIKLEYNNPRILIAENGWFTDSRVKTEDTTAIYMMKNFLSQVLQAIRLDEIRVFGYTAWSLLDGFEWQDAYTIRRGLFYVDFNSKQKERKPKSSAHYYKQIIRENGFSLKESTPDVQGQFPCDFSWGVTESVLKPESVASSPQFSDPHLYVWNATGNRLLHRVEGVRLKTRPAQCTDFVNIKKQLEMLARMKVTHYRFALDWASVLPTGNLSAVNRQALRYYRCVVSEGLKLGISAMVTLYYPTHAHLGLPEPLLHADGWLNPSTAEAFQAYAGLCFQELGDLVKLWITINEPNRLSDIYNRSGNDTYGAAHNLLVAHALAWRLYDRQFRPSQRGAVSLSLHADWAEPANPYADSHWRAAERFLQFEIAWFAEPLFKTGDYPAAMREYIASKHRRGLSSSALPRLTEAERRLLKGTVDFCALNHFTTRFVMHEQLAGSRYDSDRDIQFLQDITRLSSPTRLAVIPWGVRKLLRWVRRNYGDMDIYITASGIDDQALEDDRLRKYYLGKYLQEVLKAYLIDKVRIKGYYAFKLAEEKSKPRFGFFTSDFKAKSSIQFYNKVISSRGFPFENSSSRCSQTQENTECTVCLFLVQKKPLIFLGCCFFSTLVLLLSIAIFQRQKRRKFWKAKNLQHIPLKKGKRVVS
Experimental: Screening of antibody mutants for binding to human beta-Klotho was determined in a different SPR assay set up. Human beta-Klotho was affinity captured by an anti-His antibody (from His capture kit, GE Healthcare) that was immobilized to a series S CM5 chip (GE Healthcare) by amine reactive coupling as described above. The antibody samples were used as analytes at 50 nmol/L concentration. Association time was 240 sec and dissociation time was 300 sec. Chip surfaces were regenerated using the regeneration solution supplied with the His capture kit. The off-rates (kd) were determined using single exponential fitting in the Biacore 8K Evaluation Software version 1.1.1.7442 (GE Healthcare).

Molecule	koff human KLB
B1	invalid fit
B2	invalid fit
B3	invalid fit
B4	invalid fit
B5	0.0004194 s⁻¹
B6	invalid fit
B7	invalid fit
B8	invalid fit
B9	0.00176 s⁻¹
B10	0.00188 s⁻¹
B11	0.00168 s⁻¹
B12	invalid fit
B13	invalid fit
B14	invalid fit
B15	0.00143 s⁻¹
B16	0.0002507 s⁻¹
B17	0.0004292 s⁻¹
B18	invalid fit
B19	invalid fit
B20	invalid fit
B21	0.0005296 s⁻¹
B22	invalid fit
